Laboratory results taken from patent US20170152308A1 (Biogen, published 2017).
Where two headings read alike, the source gives them in different places.

B1: NI-205.21G2 (antibody, human IgG1, V domains shown)
VH: QVQLVQSGAEVKKPGASVKVSCKTSGYSFTSYTLHWVRQAPGHRPEWMGWINAAFINTKYSQKFQGRITLTRDTSANIAYLELRSLTTEDTAVYYCARRASGSNGLDVWGQGTTVTVSS
VL: DIQMTQSPSSLSASVGDRITITCQASRDITNYLNWYQQKPGKAPKLLIYDASYLETGVPSTFSGSGSGTHFTLTISSLQPDDFATYYCQQYDSVPLTFGGGTKVEIK
notes: Human-derived
B2: NI-205.3F10 (antibody, human IgG1, V domains shown)
VH: EVQLLESGGDLVQPGGSLRLSCAASGFTFSSQAMSWVRQAPGKGLEWVSALSRTGDYTWYADSVRGRFTVSRDDSKNIFYLEMNSLRAEDTAVYYCAKNYYSSFGYNWAAFHIWGQGTMVTVSS
VL: EIVLTQSPGTLSLSPGERATLSCRASQDVNNNYLAWYQQKPGQAPRLLIYGASRRATGVPDRFSGRGSGTDFTLTINRLEPEDFAMYFCQQYGGSPPYTFGQGTKLEIK
notes: Human-derived
B3: NI-205.51C1 (antibody, human IgG1, V domains shown)
VH: EVQLVESGGGLVQPGGSLRISCTTSGFIFSDYWMHWVRQAPGKGLTWVSRINLDGSDTIYADSVKGRFTISRDNDKNTLYLQMNSLRVEDTAIYYCARSRKSVWGQGTMVTVSS
VL: QSALTQPASVSGSPGQSITISCTGSNTDVGAYDYVSWSQQLPGKAPKFVIFDVDVRPSGISDRFSGSKSGNTASLTISGLQAEDEADYYCSSYTKSGTLVFGGGTKVTVV
notes: Human-derived

Columns and labels:
[1] = molecular target: T1, His-huTDP-43 domain II (amino acid residues 99-204) (human); test: Western blot
T1 construct: Amino terminal His-tagged fragment, E. coli
T1 chain: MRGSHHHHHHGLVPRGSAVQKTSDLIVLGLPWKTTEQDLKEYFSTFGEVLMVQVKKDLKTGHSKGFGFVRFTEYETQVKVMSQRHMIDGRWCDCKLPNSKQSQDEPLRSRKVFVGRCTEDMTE
Method: (§1) Non-specific binding sites were blocked for 1 hr. at room temperature with PBST containing 2% BSA (Sigma, Buchs, Switzerland). Blots were incubated overnight with primary antibodies (10 nM) followed by either a donkey anti-human IgGγ-specific secondary antibody conjugated with HRP (Jackson ImmunoResearch, USA) or a goat-anti mouse IgG (H+L)-specific secondary antibody conjugated with HRP (Jackson ImmunoResearch, USA). Blots were developed using ECL and ImageQuant 350 detection (GE Healthcare, Otelfingen, Switzerland).
(§2) Commercially available TDP-43 specific antibody TARDBP (M01), clone 2E2-D3 (Abnova, Taiwan) was used as positive control for human TDP-43 detection whereas, an anti-human IgG Fcγ-specific antibody was used as a negative control. Binding of the human-derived antibodies to specific TDP-43 domains was determined by Western Blot analysis.

[2] = molecular target: T2, recombinant full-length His-tagged human TDP-43 (2-414) (human, UniProt Q13148 2-414); test: direct ELISA, coated antigen
T2 construct: Amino terminal His tag, made in E. coli, purified in 8 M urea; also called full length TDP-43; full-length TDP-43
Method: (§3) The half maximal effective concentration (EC₅₀) of the human-derived TDP-43-specific antibodies for human TDP-43 and their target target-specificity was determined substantially as described in Example 2 above. Briefly, 96 well microplates (Corning) were coated with recombinant full length TDP-43 (Biogen Idec, USA), Escherichia coli extract and BSA (Sigma, Buchs, Switzerland), diluted to a concentration of 5 μg/ml in carbonate ELISA coating buffer (pH 9.6) overnight at 4° C. […] Non-specific binding sites were blocked for 1 hr. at room temperature with PBS containing 2% BSA (Sigma, Buchs, Switzerland). Human TDP-43-specific antibodies were diluted to the indicated concentrations and incubated 1 hr. at room temperature. Binding was determined using a donkey anti-human IgGγ-specific secondary antibody conjugated with HRP (Jackson ImmunoResearch, USA), followed by measurement of HRP activity in a standard colorimetric assay. EC₅₀ values were estimated by a non-linear regression using GraphPad Prism software (San Diego, USA).

[3] = molecular target: T2, recombinant full-length His-tagged …; test: direct ELISA, coated antigen; remark: listed apart in the source
Method: as §3

[4] = molecular target: T3, 6xHis-SUMO-TDP-43 (1-414), properly folded full length (human, UniProt Q13148 1-414); test: capture ELISA, antigen held by anti-6xHis antibody
T3 construct: Purified with KSCN and arginine, monomeric; captured on the plate by an anti-6xHis antibody; also called folded full-length TDP-43; 6xHis/SUMO tagged full length TDP-43; not shown: N-terminal 6xHis and SUMO tags from a modified pET19-b vector
T3 sequence (Q13148 whole entry): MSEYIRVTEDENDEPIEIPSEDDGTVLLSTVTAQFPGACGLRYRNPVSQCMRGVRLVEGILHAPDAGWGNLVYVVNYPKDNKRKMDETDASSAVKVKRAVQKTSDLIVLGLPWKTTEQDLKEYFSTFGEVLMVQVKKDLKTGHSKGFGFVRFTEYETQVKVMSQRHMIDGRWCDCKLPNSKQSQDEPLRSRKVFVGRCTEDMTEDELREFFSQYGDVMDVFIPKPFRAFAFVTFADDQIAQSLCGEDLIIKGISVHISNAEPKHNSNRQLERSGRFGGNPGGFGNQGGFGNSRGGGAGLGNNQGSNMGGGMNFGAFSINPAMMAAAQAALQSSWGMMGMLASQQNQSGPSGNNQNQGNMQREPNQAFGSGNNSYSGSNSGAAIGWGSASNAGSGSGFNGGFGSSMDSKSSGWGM
Method: (§4) Non-specific binding sites were blocked for 1 hr at RT with PBS containing 1% BSA (Sigma) and 0.05% Tween-20 (Fisher Scientific). 6×His-SUMO-TDP43 proteins at a concentration of 1.7 μM were allowed to bind to antibody-coated plates for 1 hr at RT in PBS buffer containing 1% BSA, 300 mM arginine and 0.1% PEG 5000, pH 7.5. Plates were incubated for 1 hr at RT with human antibodies of present invention, titrated in a three-fold dilution series, followed by HRP conjugated anti-human IgG Fc γ (Jackson ImmunoResearch) in PBST containing 1% BSA. HRP activity was measured in a standard colorimetric assay. EC₅₀ values were calculated using a four-parameter logistic curve fit on Softmax pro software (Molecular Devices).
(§5) We measured the binding affinity of the human-derived TDP-43 specific antibodies provided herein to properly folded 6×His/SUMO tagged TDP-43 using a capture ELISA in which native TDP-43 was immobilized without direct adsorption on the surface of the ELISA plate. This was achieved by immobilizing an anti 6×His antibody which then captured native TDP-43. […] After this immobilization step, binding by human antibodies was tested in regular buffers without interference of TDP-43 aggregation.

[5] = molecular target: T4, 6xHis-SUMO-TDP-43 (220-414) (human, UniProt Q13148 220-414); test: capture ELISA, antigen held by anti-6xHis antibody
T4 construct: Captured on the plate by an anti-6xHis antibody; also called 6xHis/SUMO tagged truncated TDP-43; not shown: N-terminal 6xHis and SUMO tags from a modified pET19-b vector
T4 sequence (Q13148 220-414): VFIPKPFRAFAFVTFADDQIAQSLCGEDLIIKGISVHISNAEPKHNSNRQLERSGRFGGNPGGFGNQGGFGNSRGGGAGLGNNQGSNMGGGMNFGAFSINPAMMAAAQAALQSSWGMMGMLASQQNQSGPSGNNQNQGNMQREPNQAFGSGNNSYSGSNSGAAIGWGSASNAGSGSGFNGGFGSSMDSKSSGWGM
Method: as §4, §5

[6] = molecular target: T5, His-huTDP-43 domain I (amino acid residues 2-106) (human); test: direct ELISA, His-tagged TDP-43 fragments coated at 6.6 ug/ml, OD 450
T5 construct: Amino terminal His-tagged fragment, E. coli; also called N-terminal domain
T5 chain: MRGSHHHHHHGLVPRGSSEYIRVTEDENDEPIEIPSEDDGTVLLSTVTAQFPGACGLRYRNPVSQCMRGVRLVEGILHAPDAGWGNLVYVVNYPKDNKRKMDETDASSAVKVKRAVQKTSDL
Method: (§6) Non-specific binding sites were blocked for 1 hr. at room temperature with PBST containing 2% BSA (Sigma, Buchs, Switzerland). Antibodies were incubated 1 hr. at room temperature. Binding was determined using either a donkey anti-human IgGγ-specific antibody conjugated with HRP (Jackson ImmunoResearch, USA) or a goat-anti mouse IgG (H+L)-specific secondary antibody conjugated with HRP (Jackson ImmunoResearch, USA)., followed by measurement of HRP activity in a standard colorimetric assay.

[7] = molecular target: T6, His-huTDP-43 domain III (amino acid residues 183-273) (human); test: as above
T6 construct: Amino terminal His-tagged fragment, E. coli
T6 chain: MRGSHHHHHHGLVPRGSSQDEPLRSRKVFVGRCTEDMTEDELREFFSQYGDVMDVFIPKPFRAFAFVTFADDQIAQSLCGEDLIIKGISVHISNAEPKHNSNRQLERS
Method: as §6

[8] = molecular target: T7, His-huTDP-43 domain IV (amino acid residues 258-414) (human, UniProt Q13148 258-414); test: as above
T7 construct: Amino terminal His-tagged fragment, E. coli, solubilized in 8 M urea; also called Glycine-rich domain
T7 sequence (Q13148 other isoform, or with tags, fused parts or gaps limits assumed): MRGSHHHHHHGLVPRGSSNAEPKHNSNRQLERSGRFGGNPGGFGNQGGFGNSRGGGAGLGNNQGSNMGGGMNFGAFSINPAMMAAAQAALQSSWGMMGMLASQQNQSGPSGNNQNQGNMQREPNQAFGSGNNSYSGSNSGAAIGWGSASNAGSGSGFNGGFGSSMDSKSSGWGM
Method: as §6

[9] = molecular target: T6, His-huTDP-43 domain III (amino acid …); test: Western blot
Method: as §1, §2

[10] = molecular target: T1, His-huTDP-43 domain II (amino acid …); test: direct ELISA, His-tagged TDP-43 fragments coated at 6.6 ug/ml, OD 450
Method: as §6

| Binder | binding result [1] | EC50 [2] [nM] | EC50 [3] [nM] | EC50 [4] [nM] | binding result [5] | binding result [6] | binding result [7] | binding result [8] | binding result [9] | binding result [10] |
| --- | --- | --- | --- | --- | --- | --- | --- | --- | --- | --- |
| B1 | binds | 0.24 | 0.24 | 3.6 | no binding | no binding | no binding | no binding |  |  |
| B2 |  | 1.4 to 2.8 | 1.4 | > 90 | no binding | no binding |  | no binding | binds | no binding |
| B3 |  | 0.18 | 0.18 | 1.1 | no binding | no binding |  | no binding | binds | no binding |
